Consider one molecule from publication PMC3745347, “Interaction of Glucocorticoid Receptor (GR) with Estrogen Receptor (ER) α and Activator Protein 1 (AP1) in Dexamethasone-mediated Interference of ERα Activity*” (The Journal of Biological Chemistry, 2013).

This assay concerns the target T1, baculovirus expressed full-length human GR (human, UniProt P04150 1-777).
T1 construct: human glucocorticoid receptor, full length, baculovirus-expressed; source: produced in baculovirus, bought: Invitrogen, partially purified
T1 sequence (looked up): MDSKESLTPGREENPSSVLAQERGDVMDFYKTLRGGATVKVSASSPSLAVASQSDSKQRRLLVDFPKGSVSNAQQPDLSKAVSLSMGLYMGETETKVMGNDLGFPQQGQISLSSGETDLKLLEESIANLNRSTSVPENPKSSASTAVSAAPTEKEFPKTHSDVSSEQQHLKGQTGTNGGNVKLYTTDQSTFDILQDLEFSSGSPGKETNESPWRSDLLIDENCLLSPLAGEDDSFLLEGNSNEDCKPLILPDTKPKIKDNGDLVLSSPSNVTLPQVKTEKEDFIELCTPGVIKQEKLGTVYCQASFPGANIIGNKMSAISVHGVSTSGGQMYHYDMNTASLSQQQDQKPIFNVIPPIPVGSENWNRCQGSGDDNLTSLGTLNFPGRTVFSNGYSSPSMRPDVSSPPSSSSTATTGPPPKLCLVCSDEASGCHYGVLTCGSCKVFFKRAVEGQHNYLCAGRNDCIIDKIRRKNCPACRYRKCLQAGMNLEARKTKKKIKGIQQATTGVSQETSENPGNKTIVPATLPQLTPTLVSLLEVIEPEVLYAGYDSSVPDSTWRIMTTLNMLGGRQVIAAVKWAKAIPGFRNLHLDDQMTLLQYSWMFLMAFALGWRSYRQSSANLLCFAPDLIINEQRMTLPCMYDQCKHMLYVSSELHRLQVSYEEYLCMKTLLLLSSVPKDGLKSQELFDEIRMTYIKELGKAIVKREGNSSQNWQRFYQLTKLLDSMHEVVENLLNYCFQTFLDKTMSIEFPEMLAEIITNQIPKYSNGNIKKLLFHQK
In words: pull-down; GST-ERα proteins on glutathione beads incubated with baculovirus-expressed, partially purified human GR; 50 mM Tris pH 8.0, 5 mM EDTA, 150 mM NaCl, 0.5% Nonidet P-40, 1 h at 4 °C; washes with up to 500 mM NaCl; blot for GR. Particulars: both partners purified.

B1: GST-ERα-N (aa 1-250) (domain or fragment, human, UniProt P03372 1-250, looked up)
chain: MTMTLHTKASGMALLHQIQGNELEPLNRPQLKIPLERPLGEVYLDSSKPAVYNYPEGAAYEFNAAAAANAQVYGQTGLPYGPGSEAAAFGSNGLGGFPPLNSVSPSPLMLLHPPPQLSPFLQPHGQQVPYYLENEPSGYTVREAGPPAFYRPNSDNRRQGGRERLASTNDKGSMAMESAKETRYCAVCNDYASGYHYGVWSCEGCKAFFKRSIQGHNDYMCPATNQCTIDKNRRKSCQACRLRKCYEVGM
notes: estrogen receptor alpha, residues 1-250 (N-terminal region: AF1 and DBD); Made in pGEX-6P1; the species of the GST construct itself is not separately stated; also called N-terminal half of ERα
Regarding B1, the binding result is recorded as “binds”.
